{"source": "patent US5661003A", "about": "“Water channel” (Marumo; Fumiaki, priority 1992, dated 1997)", "molecules": {"B1": {"name": "WCH-1: vasopressin-regulated water channel localized in the kidney collecting tubule; expressed in oocytes by injection of its capped cRNA (protein, UniProt P34080 1-271, looked up)", "Aquaporin-2": "MWELRSIAFSRAVLAEFLATLLFVFFGLGSALQWASSPPSVLQIAVAFGLGIGILVQALGHVSGAHINPAVTVACLVGCHVSFLRAAFYVAAQLLGAVAGAAILHEITPVEIRGDLAVNALHNNATAGQAVTVELFLTMQLVLCIFASTDERRGDNLGSPALSIGFSVTLGHLLGIYFTGCSMNPARSLAPAVVTGKFDDHWVFWIGPLVGAIIGSLLYNYLLFPSAKSLQERLAVLKGLEPDTDWEEREVRRRQSVELHSPQSLPRGSKA"}}, "key": {"[1]": {"target": "T1, WCH-1 water channel (Rattus norvegicus, UniProt P34080)", "T1 construct": "The longest open reading frame encodes a 271-amino acid protein (Mr 28928); expressed in transfected cells; host or cells: Xenopus laevis oocytes injected with cRNA transcribed from WCH-1 in pSPORT", "T1 sequence (P34080 1-271)": "B1 Aquaporin-2", "test": "Effect of mercurial sulfhydryl reagent and reducing agent on Pf of WCH-1-injected oocytes", "assay_type": "cell-based", "method": "(§1) Capped cRNA was synthesized from WCH-1 in pSPORT vector using T7 RNA polymerase after linearization of the pSPORT vector. Oocytes were obtained from female Xenopus laevis and prepared as described in Dascal, N. CRC Crit. Rev. Biochem. 22, 317-373 (1987), then injected with […] or 20 ng of WCH-1 RNA (1 μg/μL) and incubated at 18° C. […] Oocytes were viewed by light transmitted through an Olympus phase-contrast microscope and imaged on a Hamamatsu SIT camera connected to ARGUS-200 image processing system. Images were obtained and stored at 20-s intervals.\n(§2) Osmotic water permeability (Pf) was determined from an initial slope of a time curve of V/Vo (d (V/Vo)/dt), initial oocyte volume (Vo =9×10^-4 cm^3), initial oocyte surface area (S=0.045 cm^2), the molar volume of water (Vw =18 cm^3 /mol) by:\n(§3) Pf=[Vo×d (V/Vo)/dt]/[S×Vw ×(osmin\nTo examine the effects of mercurial sulfhydryl reagents, oocytes were incubated in Barth's buffer containing 0.3 mM HgCl2 for 5 minutes prior to Pf measurements. The recovery of the inhibition by reducing agents was examined by 15 minutes incubation in a Barth's buffer containing 5 mM β-mercaptoethanol following 5-minute incubation in HgCl2."}, "[2]": {"system": "Xenopus oocytes", "test": "Osmotic water permeability of Xenopus oocytes injected with WCH-1 RNA (videomicroscopy of osmotic volume increase)", "assay_type": "cell-based, Xenopus laevis", "method": "To determine the osmic water permeability of oocytes injected with the WCH-1 transcript, volume increase caused by an imposed osmotic gradient was measured using videomicroscopy (Zhang, R. & Verkman, A. S. Am. J. Physiol. 260, C26-C34 (1991)).\nas §1\nOocytes images were processed as described in Zhang, R. & Verkman, A. S. Am. J. Physiol. 260, C26-C34 (1991) and the projection area of the oocytes was calculated by automatic summation. Relative volume (V/Vo) was calculated from the area at time 0 (Ao) and at time t (A) by:\nas §2, §3"}}}
{"molecule": "OCCS", "note": "[B-mercaptoethanol, β-mercaptoethanol]", "values": [{"measurement": "Pf in WCH-1-injected oocytes after recovery with reducing agent", "setting": "[1]; 5 mM mercaptoethanol for 15 minutes following incubation in 0.3 mM HgCl2", "value": "63.1±25.8 ×10^-4 cm/sec"}]}
{"molecule": "[Cl][Hg][Cl]", "note": "[HgCl2]", "values": [{"measurement": "Pf in WCH-1-injected oocytes after incubation in HgCl2", "setting": "[1]; 0.3 mM HgCl2, five minutes, Pf without HgCl2 83.9±18.2", "value": "44.5±3.6 ×10^-4 cm/sec"}]}
{"molecule": "B1", "values": [{"measurement": "Pf in WCH-1-injected oocytes relative to Pf in water-injected oocytes", "setting": "[2]; WCH-1-injected vs water-injected oocytes", "value": 3.5, "unit": "times"}, {"measurement": "Osmotic water permeability (Pf)", "setting": "[2]; oocytes injected with 20 ng WCH-1 RNA, 24 h incubation, transfer from 200 mOsm to 70 mOsm Barth's buffer, 24° C., mean±SEM", "value": "83.9±18.2 ×10^-4 cm/s"}, {"measurement": "Oocytes ruptured after transfer into the hypotonic solution", "setting": "[2]; within 10 minutes, none of water-injected oocytes ruptured for more than 60 minutes", "value": "ten out of eleven"}]}
